B1: 2M8U (parent)
chain: TKAQVIEAFKVFDRDGNGYVTVDYLRKVLNELGDMMPADEIEEMIYEADPQNSGYVQYETFVGMLFL

Variants of: B1
Assay: folding stability dG (cDNA display proteolysis); higher = more stable
Settings: PBS, room temperature

Folding stability dG [kcal/mol]: each site, then its substitutions
L29: N 1.86; F 3.2; D 0.756; Q 1.4; R 1.52; C 3.16; P 1.19; A 2.57; K 1.33; V 3.28; W 2.91; G 1.58; H 1.67; Y 2.22; S 2.06; I 3.53; M 3.58; E 1.12; T 2.46
P37: M 3.3; W 3.79; T 3.32; K 3.7; A 3.1; N 3.6; G 3.36; Y 3.44; D 3.26; Q 3.43; S 3.33; C 3.49; I 3.41; V 3.34; L 3.45; E 3.34; F 3.57; H 3.46; R 3.45
L25: W 2.53; Y 1.83
M36: P 3.63; Q 3.19; S 3.41; W 4.42; R 3.6; F 4.23; A 3.8; N 3.34; L 3.72; Y 3.57; V 3.81; D 2.72; H 3.99; T 3.65; G 3.48; C 3.44; E 2.77; K 3.66; I 3.75
E42: N 3.49; F 3.06; L 3.16; H 3.01; P 2.64; V 3.01; M 3.3; Q 3.37; T 3.41; K 3.22; S 3.29; D 3.37; A 3.26; W 3.1; Y 2.97; R 3.14; I 3.25; G 3.04; C 3.11
E40: S 3.7; H 4.01; W 3.75; R 3.96; A 3.65; T 3.78; Q 3.64; C 3.85; V 3.74; L 3.89; I 3.91; F 3.99; M 3.66; D 3.69; P 3.22; G 4.01; N 4.09; K 3.91; Y 4.06
L32: N 2.53; D 1.84; S 2.56; M 3.21; V 3.26; R 2.6; W 3.33; A 2.77; H 2.96; G 2.16; Q 2.62; K 2.5; T 2.55; C 2.76; E 2.04; F 3.66; P 1.83; Y 3.28; I 3.52
E31: M 3.74; W 3.64; V 3.49; A 3.47; Y 3.4; N 3.36; K 3.49; R 3.51; D 3.62; H 3.45; P 2.78; L 3.81; G 3.4; F 3.53; Q 3.53; I 3.66; S 3.64; C 3.41; T 3.58
E43: A 3.81; C 3.74; G 3.58; F 3.8; H 4.05; I 3.87; K 3.75; L 3.73; D 3.6
A38: R 3.62; I 3.69; F 3.53; T 3.6; E 3.43; V 3.61; L 3.59; M 3.76; N 3.45; P 3.47; S 3.56; G 3.41; D 3.32; H 3.57; Y 3.5; W 4; C 3.52; Q 3.69; K 3.69
I41: M 3.57; Y 3.35; Q 2.78; H 2.52; N 2.17; F 3.5; G 2.29; L 3.83; E 2.29; V 3.4; A 2.86; K 2.59; C 2.87; D 1.96; P 1.98; T 2.72; W 3.72; R 3.03; S 2.59
N30: Y 3.57; K 3.59; T 3.44; F 3.65; P 2.6; Q 3.4; M 3.63; I 3.36; W 3.71; D 3.72; H 3.52; R 3.54; A 3.62; L 3.64; C 3.37; S 3.63; E 3.4; V 3.38; G 3.6
K27: I 3.66; R 3.48; H 3.44; P 2.04; F 3.58; E 3.28; S 3.2; D 2.89; N 3.12; Q 3.53; L 3.72; G 2.92; Y 3.43; A 3.38; C 3.05; T 3.26; V 3.62; M 3.55; W 3.42
V28: K 2.47; D 0.754; T 2.76; Q 2.25; R 2.41; P 1.37; M 2.65; S 2.18; I 3.32; L 2.71; W 2.77; A 2.63; H 2.17; E 1.63; N 1.84; G 2.32; C 2.6; F 2.86; Y 2.78
D34: H 3.53; Q 3.79; N 3.58; G 3.42; I 4.72; P 3.89; A 3.54; R 3.51; L 4.44; W 4.49; Y 4.42; T 3.51; C 4.32; V 4.2; K 3.43; E 3.77; F 4.68; M 4.24; S 3.32
G33: K 3.46; T 3.81; C 3.87; I 4.07; Q 3.37; R 3.51; S 3.28; L 3.89; V 3.83; F 3.94; P 3.54; Y 3.48; N 3.18; E 3.48; A 3.79; W 3.55; M 4.14; H 3.25; D 3.25
M35: S 3.07; G 2.95; R 3.02; D 2.96; W 3.6; F 3.9; I 3.69; Y 3.33; L 3.68; K 3.16; P 3.12; T 3.14; Q 3.09; N 2.96; C 3.25; V 3.38; H 3.01; E 2.98; A 3.09
R26: F 3.31; A 2.49; P 1.55; L 3.38; D 1.78; N 2.59; Y 3.53; H 3.19; S 2.42; K 3.37; G 1.92; M 3.44; C 2.88; E 2.14; I 3.22; W 3.63; Q 2.72; T 2.57; V 3.11
D39: H 3.71; V 4.01; C 3.74; T 3.66; Y 3.86; A 3.7; R 3.75; P 3.68; M 3.92; L 3.89; F 4.09; S 3.52; Q 3.59; G 3.77; W 3.65; I 3.83; N 3.68; K 3.79; E 3.59

— the MegaScale stability set (Tsuboyama et al. 2023)
